Test results from patent publication US20190177410A1 (Regeneron, published 2019).

Target: T1, full-length human APLNR (hAPLNR) (human, UniProt P35414 1-380)
T1 sequence: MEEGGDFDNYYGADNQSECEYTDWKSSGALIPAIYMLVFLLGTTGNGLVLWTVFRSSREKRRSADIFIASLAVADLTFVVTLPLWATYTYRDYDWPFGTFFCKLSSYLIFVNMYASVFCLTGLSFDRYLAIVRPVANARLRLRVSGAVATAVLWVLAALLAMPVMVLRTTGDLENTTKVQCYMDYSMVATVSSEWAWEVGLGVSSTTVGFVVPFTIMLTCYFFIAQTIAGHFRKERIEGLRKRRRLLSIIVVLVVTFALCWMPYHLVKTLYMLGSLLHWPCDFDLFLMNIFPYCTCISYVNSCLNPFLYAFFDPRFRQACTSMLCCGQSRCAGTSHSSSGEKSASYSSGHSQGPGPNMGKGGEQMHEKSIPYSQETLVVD
Test: cell-based or functional assay

B1: H4H9092P (antibody, human IgG4, V domains shown)
VH: EVQLVESGGGLVKPGGSLRLSCAASGITFSNAWMSWVRQAPGKGLEWVGRIKSKVDGGTIDYAAPVKGRFTISRDDSKNTLYLQMNSLKTEDTAVYYCTTGRITMVRGVLGYWGQGTLVTVSS
VL: not shown
  % Inhibition at 100 nM mAb, in the presence of 100 pM Apelin (at 10 uM Forskolin), CRE-luc: 5%
